Source: article doi:10.1101/2023.10.27.564484, “Insights into Molecular Diversity within the FET Family: Unraveling Phase Separation of the N-Terminal Low Complexity Domain from RNA-Binding Protein EWS” (bioRxiv, 2023)

Columns and labels:
EWS^LCD,13YS = EWS^LCD,13YS (UniProt Q01844); experiment: pelleting assay (phase separation); conditions: 50 µM protein, 150 mM NaCl, 20 mM Tris pH 7.4; parent: est. 0.36; read off a plot
EWS^LCD,7YS = EWS^LCD,7YS (UniProt Q01844); experiment: pelleting assay (phase separation); conditions: 50 µM protein, 150 mM NaCl, 20 mM Tris pH 7.4; parent: est. 0.36; read off a plot
[1] = molecular target: the molecule itself; experiment: turbidity (phase separation) with brightfield imaging; stock diluted into 20 mM Tris buffer with varied protein, NaCl, pH or temperature in microwell plates; absorbance and brightfield images of droplets
[2] = molecular target: the molecule itself; experiment: co-sedimentation; pelleting of condensates: stock in CAPS pH 11 diluted into 20 mM Tris pH 7.4-7.5, 150 mM NaCl, 18,000 g for 15 min at room temperature, A280 of the supernatant; protein 25-400 µM, mutants at 50 µM

## EWS low-complexity domain (N-terminal 264 residues of RNA-binding protein EWS) (from UniProt Q01844) 13YS
EWS^LCD,13YS
  other: fraction soluble: 1

## EWS low-complexity domain (N-terminal 264 residues of RNA-binding protein EWS) (from UniProt Q01844) 7YS
EWS^LCD,7YS
  other: fraction soluble: 0.92

B1: EWS low-complexity domain (N-terminal 264 residues of RNA-binding protein EWS) (domain or fragment)
chain: GAMASTDYSTYSQAAAQQGYSAYTAQPTQGYAQTTQAYGQQSYGTYGQPTDVSYTQAQTTATYGQTAYATSYGQPPTGYTTPTAPQAYSQPVQGYGTGAYDTTTATVTTTQASYAAQSAYGTQPAYPAYGQQPAATAPTRPQDGNKPTETSQPQSSTGGYNQPSLGYGQSNYSYPQVPGSYPMQPVTAPPSYPPTSYSSTQPTSYDQSSYSQQNTYGQPSSYGQQSSYGQQSSYGQQPPTSYPPQTGSYSQAPSQYSQQSSSYGQQ
notes: two residue (Gly, Ala) cloning scar left after TEV cleavage; not included in the numbering; 15N-enriched in the intermolecular PRE experiment; unlabelled in turbidity and pelleting assays; also called EWS^LCD; EWS LCD; source: E. coli BL21 DE3 Star, purified (IMAC in urea, TEV cleavage, second IMAC, SEC); not shown: His8, N-terminal, cleaved
[1]
  binding result: binds

B2: EWS^LCD,Y170S/Y172S (domain or fragment)
chain: GAMASTDYSTYSQAAAQQGYSAYTAQPTQGYAQTTQAYGQQSYGTYGQPTDVSYTQAQTTATYGQTAYATSYGQPPTGYTTPTAPQAYSQPVQGYGTGAYDTTTATVTTTQASYAAQSAYGTQPAYPAYGQQPAATAPTRPQDGNKPTETSQPQSSTGGYNQPSLGYGQSNSSSPQVPGSYPMQPVTAPPSYPPTSYSSTQPTSYDQSSYSQQNTYGQPSSYGQQSSYGQQSSYGQQPPTSYPPQTGSYSQAPSQYSQQSSSYGQQ
notes: two residue (Gly, Ala) cloning scar left after TEV cleavage; not included in the numbering; also called Y170/Y172S; source: E. coli BL21 DE3 Star, purified (IMAC, TEV cleavage, SEC); not shown: His8, N-terminal, cleaved
[1]
  binding result: binds

B3: EWS^LCD Y172S (domain or fragment)
chain: GAMASTDYSTYSQAAAQQGYSAYTAQPTQGYAQTTQAYGQQSYGTYGQPTDVSYTQAQTTATYGQTAYATSYGQPPTGYTTPTAPQAYSQPVQGYGTGAYDTTTATVTTTQASYAAQSAYGTQPAYPAYGQQPAATAPTRPQDGNKPTETSQPQSSTGGYNQPSLGYGQSNYSSPQVPGSYPMQPVTAPPSYPPTSYSSTQPTSYDQSSYSQQNTYGQPSSYGQQSSYGQQSSYGQQPPTSYPPQTGSYSQAPSQYSQQSSSYGQQ
notes: two residue (Gly, Ala) cloning scar left after TEV cleavage; not included in the numbering; source: E. coli BL21 DE3 Star, purified (IMAC, TEV cleavage, SEC); not shown: His8, N-terminal, cleaved
[2]
  binding result: binds

B4: EWS^LCD Y44S (domain or fragment)
chain: GAMASTDYSTYSQAAAQQGYSAYTAQPTQGYAQTTQAYGQQSYGTSGQPTDVSYTQAQTTATYGQTAYATSYGQPPTGYTTPTAPQAYSQPVQGYGTGAYDTTTATVTTTQASYAAQSAYGTQPAYPAYGQQPAATAPTRPQDGNKPTETSQPQSSTGGYNQPSLGYGQSNYSYPQVPGSYPMQPVTAPPSYPPTSYSSTQPTSYDQSSYSQQNTYGQPSSYGQQSSYGQQSSYGQQPPTSYPPQTGSYSQAPSQYSQQSSSYGQQ
notes: as for B3
[2]
  binding result: binds

B5: EWS^LCD Y208S (domain or fragment)
chain: GAMASTDYSTYSQAAAQQGYSAYTAQPTQGYAQTTQAYGQQSYGTYGQPTDVSYTQAQTTATYGQTAYATSYGQPPTGYTTPTAPQAYSQPVQGYGTGAYDTTTATVTTTQASYAAQSAYGTQPAYPAYGQQPAATAPTRPQDGNKPTETSQPQSSTGGYNQPSLGYGQSNYSYPQVPGSYPMQPVTAPPSYPPTSYSSTQPTSYDQSSSSQQNTYGQPSSYGQQSSYGQQSSYGQQPPTSYPPQTGSYSQAPSQYSQQSSSYGQQ
notes: as for B3
[2]
  binding result: binds
